Where “and” joins values, the source holds several entries; their conditions need not be identical. Equal entries are not always repeated. Where two headings read alike, the source gives them in different places. Bridges are numbered along the chain shown (N, C = ends). Where no end group is shown, it is not given here.
Experiments:
[1] = target: Kv1.3 (Mus musculus, UniProt P16390); assay: cell-based; format: cell-based
[2] = tested on: rat brain membrane K channels (primarily Kv1.2); format: binding
[3] = target: Kv1.3 potassium channels in Jurkat T lymphocytes (Homo sapiens, UniProt P22001); format: cell-based
[4] = target: rat brain membrane K channels (delayed rectifier, primarily Kv1.2) (rat) (UniProt P63142); assay: 125I-DTX displacement, rat brain membranes
[5] = target: rat brain membrane K channels (delayed rectifier, primarily Kv1.2) (rat) (UniProt P63142)
[6] = target: rat brain membrane K channels (delayed rectifier, primarily Kv1.2) (rat) (UniProt P63142); remark: listed apart in the source
[7] = target: rat brain membrane K channels (delayed rectifier, primarily Kv1.2) (rat) (UniProt P63142); remark: listed apart in the source
[8] = target: rat brain membrane K channels (delayed rectifier, primarily Kv1.2) (rat) (UniProt P63142); remark: listed apart in the source
[9] = target: rat brain membrane K channels (delayed rectifier, primarily Kv1.2) (rat) (UniProt P63142); remark: listed apart in the source
[10] = target: Kv1.3 potassium channel of human T lymphocytes (human) (UniProt P22001)
[11] = target: rat brain membrane K channels (delayed rectifier, primarily Kv1.2) (rat) (UniProt P63142); assay: radioligand displacement, rat brain membranes
[12] = target: cloned Kv1.3 channel, wild type
[13] = target: cloned Kv1.2 channel
[14] = target: cloned Kv1.3 channel, wild type; remark: listed apart in the source
[15] = target: cloned Kv1.3 channel, wild type; assay: patch clamp block of Kv1.3
[16] = target: IKCa channel of activated human T-cells (human) (UniProt O15554); assay: whole-cell patch clamp block, activated human T-cells; called Kd in paragraph 470
[17] = target: cloned Kv1.2 channel; remark: listed apart in the source
[18] = target: cloned Kv1.3 channel, wild type; remark: listed apart in the source
[19] = target: cloned Kv1.5 channel; assay: patch clamp block of cloned channel
[20] = target: cloned Kv3.1 channel; assay: patch clamp block of cloned channel
[21] = target: Kv1.3 H404L; assay: electrophysiological block of current; Kd from fraction of unblocked current
[22] = target: Kv1.3 D386N; assay: as above
[23] = target: Kv1.3 D386K; assay: as above
[24] = target: Kv1.3 H404Y; assay: as above
[25] = target: Kv1.3 G380E; assay: as above
[26] = target: Kv1.3 channel printed as G30; assay: as above
[27] = target: Kv1.3 H404T; assay: as above
[28] = target: cloned Kv1.3 channel, wild type; assay: block of cloned channel
[29] = target: cloned Kv1.1 channel; assay: block of cloned channel
[30] = target: rat brain membrane K channels (delayed rectifier, primarily Kv1.2) (rat) (UniProt P63142); assay: IC50 ratio on brain delayed rectifier K channels (table title); assay not given
[31] = target: cloned Kv1.3 channel, wild type; remark: listed apart in the source
[32] = target: cloned Kv1.3 channel, wild type; remark: listed apart in the source
[33] = target: cloned Kv1.3 channel, wild type; remark: listed apart in the source
[34] = target: cloned Kv1.1 channel
[35] = target: cloned Kv1.1 channel; remark: listed apart in the source
[36] = target: small conductance calcium-activated potassium channel in T-cells; assay: block of channel in T-cells
[37] = target: cloned Kv1.2 channel; assay: block of cloned channel
[38] = target: cloned Kv1.1 channel; remark: listed apart in the source
[39] = target: cloned Kv1.3 channel, wild type; remark: listed apart in the source
[40] = target: cloned Kv1.2 channel; assay: whole-cell patch clamp block, cell line stably expressing the channel
[41] = target: cloned Kv1.5 channel; assay: as above
[42] = target: cloned Kv1.3 channel, wild type; assay: as above
[43] = target: cloned Kv3.1 channel; assay: as above
[44] = target: cloned Kv1.1 channel; assay: as above
[45] = target: IKCa channel of activated human T-cells (human) (UniProt O15554); assay: whole-cell patch clamp block, activated human T-cells
[46] = target: rat brain membrane K channels (delayed rectifier, primarily Kv1.2) (rat) (UniProt P63142); assay: 125I-dendrotoxin displacement assay
[47] = target: T1, rat brain membrane K channels (delayed rectifier, primarily Kv1.2) (rat, UniProt P63142); assay: IC50 ratio on brain delayed rectifier K channels (table title); assay not given
[48] = target: T1, rat brain membrane K channels (delayed …); assay: 125I-DTX displacement, rat brain membranes
[49] = target: T1, rat brain membrane K channels (delayed …)
[50] = target: T2, Kv1.3 potassium channel of human T lymphocytes (human, UniProt P22001); assay: 125I-ChTX displacement, Jurkat T lymphocytes
[51] = target: T2, Kv1.3 potassium channel of human T …; assay: 125I-ChTX displacement, Jurkat T lymphocytes; remark: listed apart in the source

Sequence of rat brain membrane K channels (delayed rectifier, primarily Kv1.2) (rat) (P63142 whole entry): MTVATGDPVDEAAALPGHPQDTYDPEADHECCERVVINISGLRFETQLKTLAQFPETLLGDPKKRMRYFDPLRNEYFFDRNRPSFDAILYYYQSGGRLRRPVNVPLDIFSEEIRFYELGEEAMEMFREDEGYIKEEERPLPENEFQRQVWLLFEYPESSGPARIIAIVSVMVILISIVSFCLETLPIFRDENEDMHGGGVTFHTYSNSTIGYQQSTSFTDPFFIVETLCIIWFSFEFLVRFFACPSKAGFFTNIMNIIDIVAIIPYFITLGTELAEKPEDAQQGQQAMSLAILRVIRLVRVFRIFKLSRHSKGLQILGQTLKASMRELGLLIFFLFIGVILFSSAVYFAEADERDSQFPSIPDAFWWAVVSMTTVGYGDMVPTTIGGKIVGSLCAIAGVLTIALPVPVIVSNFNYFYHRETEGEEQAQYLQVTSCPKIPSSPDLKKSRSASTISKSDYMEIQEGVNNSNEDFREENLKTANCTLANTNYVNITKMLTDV
Sequence of Kv1.3 potassium channels in Jurkat T lymphocytes (P22001 whole entry): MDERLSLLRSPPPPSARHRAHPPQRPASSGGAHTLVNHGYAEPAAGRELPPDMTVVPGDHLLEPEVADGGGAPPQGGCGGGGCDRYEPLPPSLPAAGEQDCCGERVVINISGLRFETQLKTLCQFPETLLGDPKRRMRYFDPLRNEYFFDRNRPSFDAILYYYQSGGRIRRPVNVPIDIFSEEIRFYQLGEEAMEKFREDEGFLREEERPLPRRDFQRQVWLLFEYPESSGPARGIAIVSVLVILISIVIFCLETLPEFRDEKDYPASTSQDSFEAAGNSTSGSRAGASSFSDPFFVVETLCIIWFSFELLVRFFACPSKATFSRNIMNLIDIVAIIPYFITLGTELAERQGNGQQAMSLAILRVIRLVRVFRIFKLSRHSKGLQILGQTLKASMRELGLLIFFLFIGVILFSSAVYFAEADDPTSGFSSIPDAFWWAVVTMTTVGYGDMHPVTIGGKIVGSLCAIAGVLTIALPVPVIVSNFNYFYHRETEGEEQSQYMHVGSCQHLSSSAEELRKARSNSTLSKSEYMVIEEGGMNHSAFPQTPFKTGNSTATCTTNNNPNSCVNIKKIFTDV
Sequence of Kv1.3 (P16390 whole entry): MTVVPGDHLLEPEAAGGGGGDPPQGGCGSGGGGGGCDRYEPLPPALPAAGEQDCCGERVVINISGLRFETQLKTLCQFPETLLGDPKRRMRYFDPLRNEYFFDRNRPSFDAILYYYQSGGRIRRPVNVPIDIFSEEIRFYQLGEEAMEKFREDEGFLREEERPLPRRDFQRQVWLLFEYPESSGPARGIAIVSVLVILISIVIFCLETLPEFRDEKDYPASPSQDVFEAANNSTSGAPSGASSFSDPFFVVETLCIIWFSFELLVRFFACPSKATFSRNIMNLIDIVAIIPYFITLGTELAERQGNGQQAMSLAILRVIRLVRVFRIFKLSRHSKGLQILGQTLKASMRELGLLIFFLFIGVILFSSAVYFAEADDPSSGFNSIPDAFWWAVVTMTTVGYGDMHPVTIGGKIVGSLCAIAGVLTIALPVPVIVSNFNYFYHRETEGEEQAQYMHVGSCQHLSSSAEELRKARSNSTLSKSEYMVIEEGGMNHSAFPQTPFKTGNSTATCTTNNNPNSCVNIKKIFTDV
Sequence of Kv1.3 potassium channel of human T lymphocytes (human) (P22001 whole entry): as the sequence (P22001 whole entry) above

CC[C@H](C)[C@@H]1NC(=O)[C@@H](NC(=O)[C@H](CO)NC(=O)[C@@H](N)CCCNC(=N)N)CSSC[C@@H](C(=O)O)NC(=O)[C@H]([C@@H](C)O)NC(=O)CNC(=O)[C@@H]2CSSC[C@@H]3NC(=O)[C@H](CCC(N)=O)NC(=O)[C@H](Cc4ccccc4)NC(=O)[C@H](C)NC(=O)[C@H]([C@@H](C)O)NC(=O)[C@H](CSSC[C@H](NC(=O)[C@H](Cc4ccccc4)NC(=O)[C@H](CO)NC(=O)[C@H](CC(C)C)NC(=O)[C@H](CCCNC(=N)N)NC(=O)[C@H](Cc4ccc(O)cc4)NC(=O)[C@H](CCCCNC(N)=O)NC(=O)[C@H](CCSC)NC(=O)[C@H](CO)NC(=O)[C@H](Cc4c[nH]cn4)NC(=O)[C@H](CCCCN)NC3=O)C(=O)N[C@@H](CCCNC(=N)N)C(=O)N[C@@H](CCCCN)C(=O)N[C@@H]([C@@H](C)O)C(=O)N2)NC(=O)[C@H](CCCNC(=N)N)NC(=O)[C@H](CO)NC(=O)[C@H](CCCCN)NC(=O)[C@@H]2CCCN2C(=O)[C@H]([C@@H](C)CC)NC(=O)[C@H]([C@@H](C)O)NC(=O)[C@H](CC(=O)O)NC1=O [K22Homocit]
Kd ([1]; read-out: Kd): > 100 nM

CC[C@H](C)[C@@H]1NC(=O)[C@@H](NC(=O)[C@H](CO)NC(=O)[C@@H](N)CCCNC(=N)N)CSSC[C@@H](C(=O)O)NC(=O)[C@H]([C@@H](C)O)NC(=O)CNC(=O)[C@@H]2CSSC[C@@H]3NC(=O)[C@H](CCC(N)=O)NC(=O)[C@H](Cc4ccccc4)NC(=O)[C@H](C)NC(=O)[C@H]([C@@H](C)O)NC(=O)[C@H](CSSC[C@H](NC(=O)[C@H](Cc4ccccc4)NC(=O)[C@H](CO)NC(=O)[C@H](CC(C)C)NC(=O)[C@H](CCCNC(=N)N)NC(=O)[C@H](Cc4ccc(O)cc4)NC(=O)[C@H](CCCN)NC(=O)[C@H](CCSC)NC(=O)[C@H](CO)NC(=O)[C@H](Cc4c[nH]cn4)NC(=O)[C@H](CCCCN)NC3=O)C(=O)N[C@@H](CCCNC(=N)N)C(=O)N[C@@H](CCCCN)C(=O)N[C@@H]([C@@H](C)O)C(=O)N2)NC(=O)[C@H](CCCNC(=N)N)NC(=O)[C@H](CO)NC(=O)[C@H](CCCCN)NC(=O)[C@@H]2CCCN2C(=O)[C@H]([C@@H](C)CC)NC(=O)[C@H]([C@@H](C)O)NC(=O)[C@H](CC(=O)O)NC1=O [K22Orn]
Equipotent Molar Ration (Analog IC50 /ShK IC50) Rat brain [2]: 1.7
IC50 Ratio [2]: 1.2
binding affinity for rat brain K channels relative to wild-type ShK toxin, in words [2]: little effect
reduction of apparent affinity [2]: about 120%
ΔF [2]: 0.11
IC50 ([2]; read-out: IC50 Rat Brain 125I-CTX): 20 nM
Kd [1]: 2 ± 1 nM
Equipotent Molar Ration (Analog IC50 /ShK IC50) Lymphocyte [3]: 1.2
reduction of affinity (IC50) for Kv1.3 relative to ShK toxin [3]: only slightly reduced (two times)

ShK A15 + A25 (peptide)
IC50 ratio (analog IC50/ShK IC50) [4]: 2.1
free energy difference of binding [4]: 0.43 kcal/mol
IC50 ratio (analog IC50/ShK IC50) [5]: 2.1
free energy difference of binding [5]: 0.43 kcal/mol

ShK F27Cha (peptide)
IC50 ratio (analog IC50/ShK IC50) [4]: 0.7
free energy difference of binding [4]: -0.21 kcal/mol
IC50 ratio (analog IC50/ShK IC50) [6]: 0.7
free energy difference of binding [6]: -0.21 kcal/mol

ShK K9E (analog 104) (peptide)
IC50 ratio (analog IC50/ShK IC50) [7]: 3.57

ShK K22Orn (peptide)
IC50 ratio (analog IC50/ShK IC50) [8]: 1.2
free energy difference of binding [8]: 0.11 kcal/mol
IC50 ratio (analog IC50/ShK IC50) [4]: 1.7
IC50 [9]: 20 nM
equipotent molar ratio (analog IC50/ShK IC50) for block of Kv1.3 current [10]: 1.2
reduction of apparent affinity [11]: 120%
Kd [12]: 2 nM

ShK R1S (peptide)
IC50 ratio (analog IC50/ShK IC50) [4]: 1.5
IC50 [9]: 16 nM
equipotent molar ratio (analog IC50/ShK IC50) for block of Kv1.3 current [10]: 0.92

ShK desR1-S2 (peptide)
IC50 ratio (analog IC50/ShK IC50) [4]: 2.5
free energy difference of binding [4]: 0.54 kcal/mol
IC50 ratio (analog IC50/ShK IC50) [6]: 2.54
free energy difference of binding [6]: 0.54 kcal/mol

ShK toxin (synthetic, wild type) (peptide)
Kd [13]: 9 nM
Kd [14]: 0.012 nM
Kd [15]: 0.011 nM
Kd [16]: 28 nM
block of Kv1.2 current, whole-cell patch clamp [17]: 100 fold
block of Kv1.3 current, whole-cell patch clamp (IC50) [18]: 0.012 nM
IC50 [9]: 8 nM
free energy difference of binding [5]: 0 kcal/mol
Kd [19]: > 1000 nM
Kd [20]: > 1000 nM
Kd [21]: 3.2 nM
Kd [22]: 0.4 nM
Kd [23]: 1.8 nM
Kd [24]: 4 nM
Kd [25]: 0.6 nM
Kd [26]: 0.6 nM
Kd [27]: 0.3 nM
Kd [28]: 0.01 nM
Kd [29]: 0.01 nM
free energy difference of binding [30]: 0 kcal/mol
Kd [31]: 0.1 nM
Kd [12]: 0.7 nM
Kd [32]: 0.6 nM and 0.3 nM

ShK-K22DAP (peptide)
free energy difference of binding [8]: 2.23 kcal/mol
block of Kv1.3 current, whole-cell patch clamp (IC50) [33]: 0.03 nM
block of Kv1.1 current, whole-cell patch clamp [34]: 30 fold
potency on Kv1.1 against its potency on Kv1.3 [35]: 40 fold
Kd [36]: 10 nM
Kd [37]: 5 nM
loss of potency against Kv1.1 [38]: > 100 fold
half-blocking dose for Kv1.3 [39]: 28 pM
Kd [40]: 39 nM
Kd [41]: > 100 nM
Kd [42]: 0.023 nM
Kd [43]: > 100 nM
Kd [44]: 3 nM

ShK-K22DAP (peptide; other documents disagree on this pair)
Kd [45]: > 100 nM

KSRCTAFQCKHSXKYRLSFCRKTC (norleucine at position 21) [bicyclic truncated ShK analog of Example 14 (Cys12-Cys28, Cys17-Cys32)]
IC50 ratio (analog IC50/ShK IC50) [46]: 1360

KSRCTAFQCKHSXKYRLSFCRKTC (norleucine at position 21; Cys12 and Cys28 S-acetamidomethyl (Acm)) [monocyclic truncated ShK analog of Example 14 (Cys17-Cys32)]
IC50 ratio (analog IC50/ShK IC50) [46]: > 3000

Ac-RSCIDTIPKSRCTAFQCKHSMKYRLSFCRKTCGTC (ends and bridges not checked) [N-alpha-acetyl ShK toxin]
IC50 ratio (analog IC50/ShK IC50) [47]: 1 ratio
IC50 ratio (analog IC50/ShK IC50) [48]: 1 ratio

RSCIDTIPKSRCTKFQCDHSMKYRLSFCRKTCGTC (lactam 14-18; ends not checked) [ShK analog 106, Lactam Bridge (K14 -D18)]
IC50 ratio (analog IC50/ShK IC50) [49]: 1.63 ratio

RSCIDTIPKSRCTAFQCKHSMKYRLSFCRKTCGTC [ShK toxin (synthetic, wild type)]
IC50 [50]: 0.04 nM
IC50 [51]: 0.032 nM

SSCIDTIPKSRCTAFQCKHSMKYRLSFCRKTCGTC [ShK R1S]
IC50 [50]: 0.05 nM

RSCIDTIPQSRCTAFQCKHSMKYRLSFCRKTCGTC [ShK K9Q]
IC50 [50]: 0.31 nM

Source: patent publication US6077680A (The University of Florida, dated 2000)
